{"source": "patent US20210130473A1", "about": "“TGFßR1 INHIBITOR-ASGR ANTIBODY CONJUGATES AND USES THEREOF” (Silverback Therapeutics, Inc., priority 2019, published 2021)", "molecules": {"B1": {"name": "hzL4L-7: \"humanized anti-ASGR1 antibodies hzL4L-7 and hzL4L-14 as compared to parent mouse anti-ASGR1 antibody L4L\" (antibody, V domains shown)", "VH": "QVQLQESGPGLVKPSQTLSLTCTVSGYSISSDYAWNWIRQHPGKGLEWIGYISYSGSTRYNPSLKSRVTITRDTSKNQFSLKLSSVTAADTAVYYCARRYRYDEGYGMDYWGQGTTVTVSS", "VL": "DIQMTQSPSSLSASVGDRVTITCRASENIYSNLAWYQQKPGKAPKLLIYAATNLADGVPSRFSGSGSGTDFTLTISSLQPEDFATYYCQHFWGTPPWTFGGGTKVEIK"}, "B2": {"name": "hzL4L-2: humanized L4L clone: \"reduction in percent purity ... seen with the chimeric and hzL4L-1, -2 and -6\" (antibody, V domains shown)", "VH": "B1 VH with Y27G, S30T, V68I, T69S", "VL": "B1 VL"}, "B3": {"name": "hzL4L-3 (antibody, V domains shown)", "VH": "B1 VH with S30T, V68I, T69S", "VL": "B1 VL"}, "B4": {"name": "hzL4L-4 (antibody, V domains shown)", "VH": "B1 VH with S30T, T71S, R72V", "VL": "B1 VL"}, "B5": {"name": "hzL4L-5 (antibody, V domains shown)", "VH": "B1 VH with V68I, T69S", "VL": "B1 VL"}, "B6": {"name": "hzL4L-6: humanized L4L clone: \"reduction in percent purity ... seen with the chimeric and hzL4L-1, -2 and -6\" (antibody, V domains shown)", "VH": "B1 VH with S30T", "VL": "B1 VL"}, "B7": {"name": "hzL4L-8 (antibody, V domains shown)", "VH": "B1 VH with S30T, V68I, T69S, T71S, R72V", "VL": "B1 VL"}, "B8": {"name": "hzL4L-9 (antibody, V domains shown)", "VH": "B1 VH with V68I, T69S, T71S, R72V", "VL": "B1 VL"}, "B9": {"name": "hzL4L-10: \"Humanized sequences hzL4L-10 through hzL4L-14 were further modified by adding additional mutations in the light chain CDR2/FR3 junction, namely D56S ..., D56E ... or G57A\" (antibody, V domains shown)", "VH": "B1 VH with S30T, V68I, T69S", "VL": "B1 VL with D56S"}, "B10": {"name": "hzL4L-11: \"Humanized sequences hzL4L-10 through hzL4L-14 were further modified by adding additional mutations in the light chain CDR2/FR3 junction, namely D56S ..., D56E ... or G57A\" (antibody, V domains shown)", "VH": "B1 VH with S30T, V68I, T69S", "VL": "B1 VL with D56E"}, "B11": {"name": "hzH8K-1: \"humanized anti-ASGR1 antibodies hzH8K-1 and hzH8K-10 as compared to parent mouse anti-ASGR1 antibody H8K\" (antibody, V domains shown)", "VH": "QVQLQESGPGLVKPSQTLSLTCTVSGGSISSDYAWNWIRQHPGKGLEWIGYRSYRGSTSYNPSLKSRVTISVDTSKNQFSLKLSSVTAADTAVYYCARRGYYGSSSHWYFDVWGQGTTVTVSS", "VL": "DIQMTQSPSSLSASVGDRVTITCRASENIYSYLAWYQQKPGKAPKLLIYNAKTLAEGVPSRFSGSGSGTDFTLTISSLQPEDFATYYCQHHYGTPLTFGGGTKVEIK"}}, "note": "Substitutions are numbered along the chain they refer to. Names may count otherwise.", "data": [{"target": "T1, HepG2 cells (which express ASGR1) (Homo sapiens, UniProt P07306)", "T1 construct": "endogenous in cells; host or cells: HepG2", "T1 sequence (P07306 1-291)": "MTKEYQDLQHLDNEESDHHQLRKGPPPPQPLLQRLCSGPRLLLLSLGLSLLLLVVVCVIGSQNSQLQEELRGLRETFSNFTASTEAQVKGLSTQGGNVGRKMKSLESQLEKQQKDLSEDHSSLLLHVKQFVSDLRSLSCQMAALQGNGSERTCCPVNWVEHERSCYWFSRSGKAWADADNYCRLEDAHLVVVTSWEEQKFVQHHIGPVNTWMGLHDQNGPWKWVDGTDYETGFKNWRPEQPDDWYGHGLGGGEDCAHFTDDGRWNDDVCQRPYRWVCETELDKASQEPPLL", "experiment": "Guava HepG2 cell binding screen of anti-ASGR1 mAbs", "details": "humanized L4L clones; Good / Poor", "method": "Additionally, hybridomas producing monoclonal antibodies (mAbs) specific for human ASGR1 were prepared from Balb/C mice immunized with ASGR1-AviHis at a service provider using their propriety protocol. Antibody heavy and light chain sequences were obtained, amplified, and cloned. Clone supernatants containing the expressed mAbs were screened for binding to a human ASGR1-IgG1Fc fusion protein, and those with a positive signal as measured by enzyme linked immunosorbent assay (ELISA) were screened for cell binding on HepG2 cells (which express ASGR1). […] The isolated mAbs were further analyzed for the additional characteristics including, for example, titer, low aggregate content following protein A purification, high titer, lack of cross-blocking of ligand GalNac, calcium sensitivity, and cross-reactivity with rat ASGR1 protein.", "values": [{"molecule": "B1", "Guava HepG2 Screen": "Good"}, {"molecule": "B2", "Guava HepG2 Screen": "Good"}, {"molecule": "B3", "Guava HepG2 Screen": "Good"}, {"molecule": "B4", "Guava HepG2 Screen": "Poor"}, {"molecule": "B5", "Guava HepG2 Screen": "Good"}, {"molecule": "B6", "Guava HepG2 Screen": "Good"}, {"molecule": "B7", "Guava HepG2 Screen": "Poor"}, {"molecule": "B8", "Guava HepG2 Screen": "Poor"}, {"molecule": "B9", "Guava HepG2 Screen": "Good"}, {"molecule": "B10", "Guava HepG2 Screen": "Good"}]}, {"target": "T2, rat ASGR1 (Rattus norvegicus, UniProt P02706)", "T2 construct": "expressed in transfected cells; host or cells: CHO-S (transient)", "T2 sequence (P02706 1-284)": "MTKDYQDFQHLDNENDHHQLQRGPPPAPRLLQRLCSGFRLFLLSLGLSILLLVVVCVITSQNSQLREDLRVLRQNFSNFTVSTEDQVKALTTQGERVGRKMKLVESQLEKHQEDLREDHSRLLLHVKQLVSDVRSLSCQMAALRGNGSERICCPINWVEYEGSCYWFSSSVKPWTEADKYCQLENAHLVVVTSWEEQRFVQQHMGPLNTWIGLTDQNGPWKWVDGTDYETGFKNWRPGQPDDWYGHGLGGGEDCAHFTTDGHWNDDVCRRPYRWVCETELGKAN", "experiment": "Binding to cell surface expressed rat ASGR1 (transiently transfected CHO-S cells, GUAVA)", "details": "not given", "method": "Anti-human ASGR1 antibodies of this disclosure were examined for cross-reactivity with Cynomolgus macaque and rat ASGR1. Briefly, sequence encoding Cynomolgus macaque or rat ASGR1 was transiently transfected into CHO-S cells. Transfected cells were before performing cell binding assay. A total of about 1.5×10^4 transfected cells/well were added to 96-well V-bottom assay plate, incubated at 37° C., 5% CO2 for 48-72 hours, and then washed with culture medium before adding 100 μl of each ASGR1 antibody at different concentrations starting from 100 nM and 3-fold dilutions to a total of eight wells. The cells with antibody were incubated for 40 minutes at 4° C., then washed three times with 200 μl of fresh culture medium. To each well was added 50 μl PE conjugated goat anti-human Fc (SouthernBiotech) at 1:200 dilution in culture medium and then incubated at 4° C. for 20 minutes. After washing the plate once, the treated cells were resuspended in 200 μl culture medium and then the stained cells were analyzed on GUAVA® using Incyte software.\nAnti-human ASGR1 antibodies of this disclosure were examined for cross-reactivity with Cynomolgus macaque and rat ASGR1. […] After washing the plate once, the treated cells were resuspended in 200 μl culture medium and then the stained cells were analyzed on GUAVA® using Incyte software.", "values": [{"molecule": "B11", "binding to rat ASGR1": "not rat cross-reactive"}, {"molecule": "B1", "binding to rat ASGR1": "not rat cross-reactive"}]}, {"target": "T3, human ASGR1 extracellular domain (ECD) (Homo sapiens, UniProt P07306)", "T3 sequence (P07306 62-291 limits assumed)": "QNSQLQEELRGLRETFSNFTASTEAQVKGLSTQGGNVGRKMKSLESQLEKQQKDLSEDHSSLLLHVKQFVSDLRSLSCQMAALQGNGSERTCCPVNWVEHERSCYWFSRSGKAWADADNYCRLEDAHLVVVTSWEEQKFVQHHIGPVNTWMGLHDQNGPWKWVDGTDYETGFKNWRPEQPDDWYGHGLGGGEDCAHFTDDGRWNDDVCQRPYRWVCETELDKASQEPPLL", "experiment": "Effect of calcium on anti-ASGR1 binding and dissociation (OCTET Red 96, Penta-His biosensors)", "parameters": "key to Ca2+ sensitivity during association / Ca2+ sensitivity during dissociation / Ca2+ Sensitivity: N = No; Y = Yes", "details": "binding to human ASGR1 ECD with or without calcium, OCTET", "method": "(§1) The ability of anti-human ASGR1 antibodies of this disclosure to bind to human ASGR1 in the presence or absence of calcium in binding buffer was examined. Briefly, ASGR1 antibodies were bound to immobilized human ASGR1 extracellular domain (ECD) at saturating levels and subsequently dissociated under three different conditions as follows: (a) binding and dissociation with buffer containing calcium (PBS+1% BSA+0.2% Tween20+0.9 mM CaCl2), pH 7.4); (b) binding with buffer containing calcium and dissociation with buffer lacking calcium; and (c) binding and dissociation with buffer lacking calcium. Analysis of ASGR1 antibody binding to human ASGR1 ECD was performed using the OCTET® Red 96 instrument and analyzed using the OCTET®Data Analysis Software 9.0 (ForteBio). His-tagged human ASGR1 ECD was immobilized to OCTET® Penta-His biosensors and ASGR1 antibodies were subjected to avidity binding under the conditions described above. Association with the ASGR1 ECD was measured by the rate of and increase in magnitude of signal response at a given antibody concentration. Dissociation from the ASGR1 ECD was measured the rate of loss in signal upon removal of the antibody and further incubation with or without Ca^2+. […] Also tested were humanized antibodies hzH8K-1 and hzL4L-7.\n(§2) Further analysis of the antibodies of this disclosure was to determine whether the presence of calcium was needed for binding (i.e., during association) of the antibodies to human ASGR1 ECD. […]", "values": [{"molecule": "B11", "Ca2+ sensitivity during association": "N"}, {"molecule": "B1", "Ca2+ sensitivity during association": "N"}]}, {"target": "T3, human ASGR1 extracellular domain (ECD)", "experiment": "Effect of calcium on anti-ASGR1 binding and dissociation (OCTET Red 96, Penta-His biosensors)", "parameters": "key to Ca2+ sensitivity during association / Ca2+ sensitivity during dissociation / Ca2+ Sensitivity: N = No; Y = Yes", "details": "dissociation from human ASGR1 ECD with or without calcium, OCTET", "method": "as §1, §2", "values": [{"molecule": "B11", "Ca2+ sensitivity during dissociation": "N"}, {"molecule": "B1", "Ca2+ sensitivity during dissociation": "N"}]}, {"target": "T3, human ASGR1 extracellular domain (ECD)", "experiment": "Effect of calcium on anti-ASGR1 binding and dissociation (OCTET Red 96, Penta-His biosensors)", "parameters": "key to Ca2+ sensitivity during association / Ca2+ sensitivity during dissociation / Ca2+ Sensitivity: N = No; Y = Yes", "details": "overall summary column", "method": "as §1, §2", "values": [{"molecule": "B11", "Ca2+ Sensitivity": "N"}, {"molecule": "B1", "Ca2+ Sensitivity": "N"}]}, {"target": "T3, human ASGR1 extracellular domain (ECD)", "experiment": "Effect of calcium on anti-ASGR1 binding and dissociation (OCTET Red 96, Penta-His biosensors)", "parameters": "key to Ca2+ sensitivity during association / Ca2+ sensitivity during dissociation / Ca2+ Sensitivity: N = No; Y = Yes", "details": "sensitive: difference in binding signal after dissociation with vs without calcium >±10%", "method": "as §1, §2", "values": [{"molecule": "B1", "calcium sensitivity of binding to human ASGR1 ECD": "lacking sensitivity to calcium"}]}]}
